Results published in US20130196320A1, “METHOD FOR IMPROVING CLEAVAGE OF DNA BY ENDONUCLEASE SENSITIVE TO METHYLATION” (CELLECTIS, priority 2010, published 2013).
Blank lines part the entries; values can stand above or below the molecule they belong to.

Experiments:
[1] = tested on: XPC4 target locus in 293H cells; test: Meganuclease-induced mutagenesis at XPC4 target locus by deep sequencing, siRNA targeting DNMT1; format: cell-based, human; conditions: for mutagenesis, PCR fragments carrying a mutation: Empty vector
Procedure: (§1) The human 293H cells (ATCC) were plated at a density of 1.2×10^6 cells per 10 cm dish in complete medium (DMEM supplemented with 2 mM L-glutamine, penicillin (100 IU/ml), streptomycin (100 μg/ml), amphotericin B (Fongizone: 0.25 μg/ml, Invitrogen-Life Science) and 10% FBS). The next day, cells were transfected with 5 μg of empty vector pCLS003 (SEQ ID NO: 65) and 1 nM or 5 nM of si_DNMT1 composed of mixture of two siRNA DNMT1—1 ([…], SEQ ID NO: 66) and DNMT1—2 ([…], SEQ ID NO: 67) or with si_AS, a siRNA control with no known human target, using Lipofectamine 2000 as transfection reagent (Invitrogen) according to the manufacturer's protocol. The day after, cells were re-platted at the density of 1.2×10^6 cells per 10 cm. 24 hours after, cells were transfected again with 1 nM or 5 nM of siDNMT1 or si_AS in presence of 3 μg of meganuclease expressing vector (pCLS2510; SEQ ID NO: 68) and 2 μg of empty vector or 5 μg of empty vector (SEQ ID NO: 65), with Lipofectamine 2000 transfection reagent (Invitrogen) according to the manufacturer's protocol.
After genomic DNA extraction, the XPC4 target locus was amplified with specific primers flanked by specific adaptator needed for HTS sequencing on the 454 sequencing system (454 Life Sciences)
5,000 to 10,000 sequences per sample were analyzed.

[2] = tested on: XPC4 target CpG motives in 293H cells; test: DNA methylation of XPC4 target by bisulfite treatment and sequencing, siRNA targeting DNMT1; format: cell-based, human; conditions: for amount of unmethylated C, % of total: one of the two CpG of XPC4 target; for amount of unmethylated C: the other CpG of XPC4 target
Source text: FIG. 15: Chromatogram. In order to determine the methylation status of the two CpG motives present in the XPC4 target sequence, genomic DNA was extracted, and treated with bisulfite. Bisulfite treatment is based on a chemical reaction of sodium bisulfite with DNA that converts unmethylated cytosines into uracil whereas methylated cytosines remain unchanged. DNA was then amplified by PCR and sequenced. […] For one of the two CpG ([…]; SEQ ID NO: 24) the amount of unmethylated C was estimated to 20 and 30% of total after 1 nM and 5 nM of si_DNMT1, respectively. For the other CpG ([…]; SEQ ID NO: 24) the amount of unmethylated C was estimated to 25 and 50% after 1 nM and 5 nM of si_DNMT1, respectively.
as §1
To assess the level DNA methylation, DNA sequencing was performed after a bisulfite treatment according to the instructions of the manufacturer (EZ DNA methylation-Gold Kit, Zymo Research). After genomic DNA extraction, the XPC4 target locus was amplified by PCR with specific primers

C1221 DNA target = test: In vitro cleavage assay with C1221 duplex, increasing meganuclease concentration; format: biochemical
Procedure: FIG. 2: In vitro cleavage of unmethylated or methylated C1221 by I-CreI. A constant amount of C1221 (50 nM) was incubated with increasing concentrations of I-CreI (0 to 2 μM) in reaction buffer (10 mM Tris-HCl, 150 mM NaCl, 10 mM MgCl2, pH8) for an hour at 37° C. The reaction was stopped and the remaining uncleaved C1221 was quantify and plotted as function of I-CreI concentration.
FIG. 3: In vitro cleavage of unmethylated or methylated C1221 by I-CreI D75N. 50 nM C1221 containing either 0, 1, 2 or 3 methylated CG was incubated with increasing concentrations of I-CreI D75N (0 to 2 μM) in reaction buffer (10 mM Tris-HCl, 150 mM NaCl, 10 mM MgCl2, pH8) for an hour at 37° C. The reaction was stopped and cleaved and uncleaved C1221 (top and bottom panel respectively) were quantify and plotted as function of I-CreI D75N concentration.
To investigate the influence of C1221 methylation on the nuclease activity of I-CreI, an in vitro cleavage assay with either unmethylated or fully methylated C1221 duplex (SEQ ID NOs: 4-5 and 12-13 respectively) was performed. A constant amount of C1221 duplex (50 nM) was incubated with increasing concentration of I-CreI (0 to 2 μM) in a total volume of 25 μL of reaction buffer (10 mM Tris-HCl, 150 mM NaCl, 10 mM MgCl2, pH8). Cleavage reaction was allowed to proceed 1 hour at 37° C. and then stopped by addition of 5 μL of 6× stop buffer (45% glycerol, 95 mM EDTA, 1.5% (w/v) SDS, 1.5 mg/mL proteinase K and 0.048% (w/v) bromophenol blue) followed by an hour incubation at 37° C. Cleaved and uncleaved DNA products were separated by PAGE using a TGX Any kD precast gel (Bio-Rad), stained with SYBR Green and then quantified using Quantity One software (Bio-Rad).
To investigate the influence of C1221 methylation on the nuclease activity of I-CreI D75N, in vitro cleavage assay with C1221 duplex containing either 0, 1, 2 or 3 methylated CG (SEQ ID NOs: 4-5, 6-7, 8-9, 10-11 respectively) was performed, according to the procedure described for I-CreI wild type.

[3] = tested on: CAPNS1 target in human CAPNS1 gene, 293H cells; test: Meganuclease-induced mutagenesis assay at CAPNS1 recognition site; format: cell-based; conditions: CAPNS1 meganuclease
Procedure: (§2) The human 293H cells (ATCC) were plated at a density of 1.2×10^6 cells per 10 cm dish in complete medium (DMEM supplemented with 2 mM L-glutamine, penicillin (100 IU/ml), streptomycin (100 μg/ml), amphotericin B (Fongizone: 0.25 μg/ml, Invitrogen-Life Science) and 10% FBS). The cells were pre-treated with 5-aza-deoxycytidine at 0.2 μM or 1 μM, 48 hours before transfection and the treatment was maintained 48 hours post-transfection. The medium was changed every day. The cells were transfected with 3 μg of DNA plasmids encoding meganuclease for RAG or 2.5 μg of each monomer CAPNS1 using Lipofectamine 2000 transfection reagent (Invitrogen) according to the manufacturer's protocol.
(§3) The efficiency of the meganuclease to promote mutagenesis at its endogenous recognition site was evaluated by sequencing the DNA surrounding the meganuclease cleavage site. Two days post-transfection, genomic DNA was extracted. 200 ng of genomic DNA were used to amplify (PCR amplification) the endogenous locus surrounding the meganuclease cleavage site. PCR amplification is performed to obtain a fragment flanked by specific adaptor sequences [adaptor A: 5′-[…]-NNNN-3′(SEQ ID NO: 46) and adaptor B, 5′-[…]-3′ (SEQ ID NO: 47)] provided by the company offering sequencing service (GATC Biotech AG, Germany) on the 454 sequencing system (454 Life Sciences). The primers sequences used for PCR amplification were:
(§4) RAG_R1: 5′-[…]-[…]-3′ (SEQ ID NO: 58) and CAPNS1_J3: 5′-[…]-NNNN-[…] (SEQ ID NO: 59) and CAPNS1_R3: 5′-[…]-[…]-3′ (SEQ ID NO: 60). Sequences specific to the locus are underlined. The sequence NNNN in primer F1 is a Barcode sequence (Tag) needed to link the sequence with a PCR product. The percentage of PCR fragments carrying insertion or deletion at the meganuclease cleavage site is related to the mutagenesis induced by the meganuclease through NHEJ pathway in a cell population, and therefore correlates with the meganuclease activity at its endogenous recognition site. 5000 to 10000 sequences were analyzed per conditions.

[4] = tested on: RAG target in human RAG1 gene, 293H cells; test: Meganuclease-induced mutagenesis assay at RAG recognition site; format: cell-based; conditions: RAG meganuclease
Procedure: as §2, §3
RAG_F1: 5′-[…]-NNNN-[…] (SEQ ID NO: 57) and
as §4

Molecule: si_DNMT1: mixture of two siRNA DNMT1—1 (SEQ ID NO: 66) and DNMT1—2 (SEQ ID NO: 67) targeting DNMT1 gene (chain 1 ACGGTGCTCATGCTTACAACC; chain 2 CCCAATGAGACTGACATCAAA; mixture of two siRNAs, further chemistry not given here)
- mutagenesis, PCR fragments carrying a mutation ([1]; Si_DNMT1 1 nM): 0.022%
- mutagenesis, PCR fragments carrying a mutation ([1]; Si_DNMT1 5 nM): 0.055%
- mutagenesis ([1]; empty vector, 1 or 5 nM of si_DNMT1): low or absent
- amount of unmethylated C, % of total ([2]; 1 nM): 20%
- amount of unmethylated C, % of total ([2]; 5 nM): 30%
- amount of unmethylated C ([2]; 1 nM): 25%
- amount of unmethylated C ([2]; 5 nM): 50%

- EC50 (C1221 DNA target; unmethylated C1221, 1 hour at 37° C., read-out: C50 (concentration of meganuclease needed to cleave 50% of C1221)): 100 to 150 nM
B1: I-CreI D75N: I-CreI D75N meganuclease variant, SEQ ID NO: 22 (protein)
chain: MANTKYNKEFLLYLAGFVDGDGSIIAQIKPNQSYKFKHQLSLAFQVTQKTQRRWFLDKLVDEIGVGYVRDRGSVSDYILSEIKPLHNFLTQLQPFLKLKQKQANLVLKIIWRLPSAKESPDKFLEVCTWVDQIAALNDSKTRKTTSETVRAVLDSLSEKKKSSPAAD
- increase of C50 (C1221 DNA target; C1221 with one methyl group on both strand vs unmethylated): about 3 folds
- increase of C50 (C1221 DNA target; C1221 with three methyl groups vs unmethylated): more than 10 folds
- increase of C50 (C1221 DNA target; C1221 with two methyl groups vs unmethylated): more than 10 folds
- meganuclease concentration at which C1221 cleaved product leveled up (C1221 DNA target; unmethylated C1221): about 500 nM

B2: CAPNS1: engineered heterodimer meganuclease (SEQ ID NO: 62+SEQ ID NO: 63) cleaving the 5′ UTR of the human CAPNS1 gene (protein)
chain 1: MANTKYNKEFLLYLAGFVDSDGSIIAQIKPRQSYKFKHQLRLTFYVTQKTQRRWFLDKLVDEIGVGYVEDSGSVSRYVLSEIKPLHNFLTQLQPFLKLKQKQANLVLKIIEQLPSAKESPDKFLEVCTWVDQVAALNDSKTRKTTSETVRAVLDSLSEKKKSSPAAD
chain 2: MANTKYNKEFLLYLAGFVDGDGSIVAQIKPNQRAKFKHQLSLTFQVTQKTQRRWLLDKLVDEIGVGYVQDSGSVSNYRLSEIKPLHNFLTQLQPFLKLKQKQANLVLKIIEQLPSAKESPDKFLEVCTWADQIAALNDSKTRKTTSETVRAVLDSLSEKKKPSPAAD
- mutagenesis, PCR fragments carrying a mutation ([3]; 0 μM 5-aza-2′-deoxycytidine): 6.10% ± 0.43
- mutagenesis, PCR fragments carrying a mutation ([3]; 0 μM 5-aza-2′-deoxycytidine, listed as CAPNS1 meganuclease): 6.1%±0.43
- mutagenesis, PCR fragments carrying a mutation ([3]; 0.2 μM 5-aza-2′-deoxycytidine): 6.55% ± 0.77
- mutagenesis, PCR fragments carrying a mutation ([3]; 0.2 μM 5-aza-2′-deoxycytidine, listed as CAPNS1 meganuclease): 6.55%±0.77
- mutagenesis, PCR fragments carrying a mutation ([3]; 1 μM 5-aza-2′-deoxycytidine): 4.34% ± 0.95
- mutagenesis, PCR fragments carrying a mutation ([3]; 1 μM 5-aza-2′-deoxycytidine, listed as CAPNS1 meganuclease): 4.34%±0.95

B3: RAG: engineered single chain meganuclease (SEQ ID NO: 61) designed to cleave a sequence in the human RAG1 gene (protein)
chain: MANTKYNEEFLLYLAGFVDGDGSIIAQINPNQSSKFKHRLRLTFYVTQKTQRRWFLDKLVDEIGVGYVRDSGSVSQYVLSEIKPLHNFLTQLQPFLELKQKQANLVLKIIEQLPSAKESPDKFLEVCTWVDQIAALNDSKTRKTTSETVRAVLDSLSGKKKSSPAAGGSDKYNQALSKYNQALSKYNQALSGGGGSNKKFLLYLAGFVDSDGSIIAQIKPRQSNKFKHQLSLTFAVTQKTQRRWFLDKLVDRIGVGYVYDSGSVSDYRLSEIKPLHNFLTQLQPFLKLKQKQANLVLKIIEQLPSAKESPDKFLEVCTWVDQIAALNDSKTRKTTSETVRAVLDSLSEKKKSSP
- mutagenesis, PCR fragments carrying a mutation ([4]; 0 μM 5-aza-2′-deoxycytidine): 0.76% ± 0.02
- mutagenesis, PCR fragments carrying a mutation ([4]; 0 μM 5-aza-2′-deoxycytidine, listed as RAG meganuclease): 0.75%±0.02
- mutagenesis, PCR fragments carrying a mutation ([4]; 0.2 μM 5-aza-2′-deoxycytidine): 0.71% ± 0.17
- mutagenesis, PCR fragments carrying a mutation ([4]; 0.2 μM 5-aza-2′-deoxycytidine, listed as RAG meganuclease): 0.71%±0.17
- mutagenesis, PCR fragments carrying a mutation ([4]; 1 μM 5-aza-2′-deoxycytidine): 0.59% ± 0.3
- mutagenesis, PCR fragments carrying a mutation ([4]; 1 μM 5-aza-2′-deoxycytidine, listed as RAG meganuclease): 0.59%±0.31
